Assays:
[1] = substrate: CCCCCCCCCCCCCCCCCC(=O)O; experiment: heptadecane formation by GC-FID; Eadie-Hofstee plot; type: biochemical, Chlorella variabilis; settings: blue light, 20 h, 25 °C, 50 mM Tris-HCl pH 8.5, 30 vol% DMSO, lithium salt, kcat unit doubtful (Vmax 2.83 μM/h)
[2] = substrate: CCCCCCCCCCCCCCCCCC(=O)SCCNC(=O)CCNC(=O)[C@H](O)C(C)(C)COP(=O)(O)OP(=O)(O)OC[C@H]1O[C@@H](n2cnc3c(N)ncnc32)[C@H](O)[C@@H]1OP(=O)(O)O; experiment: as above; type: biochemical, Chlorella variabilis; settings: blue light, 20 h, 25 °C, 50 mM Tris-HCl pH 8.5, 30 vol% DMSO, lithium salt, kcat unit doubtful (Vmax 3.22 μM/h)

B1: CvFAP (fatty acid photodecarboxylase) (Chlorella variabilis) (protein)
chain: SAVEDIRKVLSDSSSPVAGQKYDYILVGGGTAACVLANRLSADGSKRVLVLEAGPDNTSRDVKIPAAITRLFRSPLDWNLFSELQEQLAERQIYMARGRLLGGSSATNATLYHRGAAGDYDAWGVEGWSSEDVLSWFVQAETNADFGPGAYHGSGGPMRVENPRYTNKQLHTAFFKAAEEVGLTPNSDFNDWSHDHAGYGTFQVMQDKGTRADMYRQYLKPVLGRRNLQVLTGAAVTKVNIDQAAGKAQALGVEFSTDGPTGERLSAELAPGGEVIMCAGAVHTPFLLKHSGVGPSAELKEFGIPVVSNLAGVGQNLQDQPACLTAAPVKEKYDGIAISDHIYNEKGQIRKRAIASYLLGGRGGLTSTGCDRGAFVRTAGQALPDLQVRFVPGMALDPDGVSTYVRFAKFQSQGLKWPSGITMQLIACRPQSTGSVGLKSADPFAPPKLSPGYLTDKDGADLATLRKGIHWARDVARSSALSEYLDGELFPGSGVVSDDQIDEYIRRSIHSSNAITGTCKMGNAGDSSSVVDNQLRVHGVEGLRVVDASVVPKIPGGQTGAPVVMIAERAAALLTGKATIGASAAAPATVAA
notes: codon-optimised gene, C-terminal 6xHis tag (3'-terminus), pET28, E. coli BL21(DE3), Ni-NTA purified
Km [1]: 108.31 µM
kcat [1]: 979.62 s⁻¹
Km [2]: 75.30 µM
